Consider 58 variants from the FLAb antibody collection (doi:10.7554/elife.23156).

As a reminder, the Kd is the constant that tells how readily two partners part at equilibrium.

Sequences and labels used below:
B1: scFv; the commonest letter at each place (parent)
chain 1: EVKLDETGGGLVQPGRPMKLSCVASGFTFSDYWMNWVRQSPEKGLEWVAQIRNKPYNYETYYSDSVKGRFTISRDDSKSSVYLQMNNLRVEDMGIYYCTGSYYGMDYWGQGTSVTVS
chain 2: DVVMTQTPLSLPVSLGDQASISCRSSQSLVHSNGNTYLRWYLQKPGQSPKVLIYKVSNRFSGVPDRFSGSGSGTDFTLKISRVEAEDLGVYFCSQSTHVPWTFGGGTKLEIK

The variants in the series “fluorescein” derive from B1. Nature of the series: Kd (Tite-Seq). To be noted: with fluorescein; format: scFv 4-4-20, heavy + light.
Variants of B1 are the subject of series [1]. Nature of the series: yeast surface expression (ratio to wild type); higher = more expressed. To be noted: format: scFv 4-4-20, heavy + light.

On to chain 1 F29A W36S, for which, in the series with fluorescein, the Kd was ≥ 10 µM. Also, the yeast surface expression in series [1] came to 0.313.

On to chain 1 F29E D31G N35R, for which, in the series with fluorescein, the Kd is ≥ 10 µM. Also, the yeast surface expression in series [1] is 0.621.

With chain 1 F29D D31E, in the series with fluorescein, the Kd was ≥ 10 µM. Moreover, the yeast surface expression in series [1] is 1.01.

Turning to chain 1 F29L V37P, the Kd with fluorescein is ≥ 10 µM. In addition, in series [1], the yeast surface expression is 0.419.

On to chain 1 F29S M34S, for which the Kd with fluorescein was ≥ 10 µM. In addition, the yeast surface expression in series [1] was 0.543.

For chain 1 F29I W33H M34P, the Kd with fluorescein was ≥ 10 µM. Besides, the yeast surface expression in series [1] was found to be 0.518.

In the case of chain 1 F29A S30V, in the series with fluorescein, the Kd turned out to be 3.94 µM. In addition, the yeast surface expression in series [1] worked out at 0.758.

Turning to chain 1 F29M W36V, the Kd with fluorescein was ≥ 10 µM. For the same variant, the yeast surface expression in series [1] is 0.782.

With chain 1 F29G Y32Q, in the series with fluorescein, the Kd was ≥ 10 µM. The yeast surface expression in series [1] turned out to be 0.991.

Turning to chain 1 F29M N35W, the Kd with fluorescein is ≥ 10 µM. Moreover, in series [1], the yeast surface expression is 0.403.

As for chain 1 F29P W36A, in the series with fluorescein, the Kd is ≥ 10 µM. Also, in series [1], the yeast surface expression was 0.456.

chain 1 F29P W36E: the Kd in the series with fluorescein is ≥ 10 µM. For the same variant, in series [1], the yeast surface expression worked out at 0.482.

On to chain 1 F29I S30R D31E, for which the Kd in the series with fluorescein was 0.228 µM. Moreover, the yeast surface expression in series [1] was 0.688.

Turning to chain 1 F29Q M34W, the Kd with fluorescein is ≥ 10 µM. In addition, in series [1], the yeast surface expression worked out at 1.56.

As to chain 1 F29I W36L, the Kd with fluorescein is ≥ 10 µM. For the same variant, in series [1], the yeast surface expression stood at 0.729.

As to chain 1 F29C M34K W36I, the Kd in the series with fluorescein is ≥ 10 µM. Also, in series [1], the yeast surface expression was found to be 0.425.

Take chain 1 F29Q Y32E W33S: the Kd with fluorescein is ≥ 10 µM. The yeast surface expression in series [1] was 0.761.

chain 1 F29P D31R: in the series with fluorescein, the Kd turned out to be 0.0259 µM. Also, the yeast surface expression in series [1] is 0.86.

As to chain 1 F29P D31I, the Kd with fluorescein is ≥ 10 µM. Besides, in series [1], the yeast surface expression worked out at 0.679.

Consider chain 1 F29M V37Y, for which the Kd with fluorescein was 7.72 µM. The yeast surface expression in series [1] came to 1.04.

For the variant chain 1 F29T S30C, the Kd with fluorescein was 0.0391 µM. Besides, in series [1], the yeast surface expression worked out at 0.804.

In the case of chain 1 F29I W33D M34W, in the series with fluorescein, the Kd was ≥ 10 µM. Besides, the yeast surface expression in series [1] was determined as 0.719.

For chain 1 F29G W36M, the Kd in the series with fluorescein is ≥ 10 µM. Moreover, the yeast surface expression in series [1] is 0.478.

Take chain 1 F29T S30D M34V: the Kd in the series with fluorescein is ≥ 10 µM. The yeast surface expression in series [1] was 0.837.

Turning to chain 1 F29L W33Y, the Kd with fluorescein is ≥ 10 µM. Besides, in series [1], the yeast surface expression was 0.732.

Turning to chain 1 F29L W33A, the Kd with fluorescein was ≥ 10 µM. Also, the yeast surface expression in series [1] came to 0.763.

Take chain 1 F29C W33G: in the series with fluorescein, the Kd was ≥ 10 µM. Moreover, in series [1], the yeast surface expression is 0.544.

With chain 1 F29C W33E, the Kd in the series with fluorescein was ≥ 10 µM. Besides, in series [1], the yeast surface expression amounted to 0.556.

chain 1 F29C W33Q: the Kd in the series with fluorescein is ≥ 10 µM. Further, the yeast surface expression in series [1] stood at 0.687.

Consider chain 1 F29S D31Y, for which the Kd with fluorescein was 0.00343 µM. In addition, the yeast surface expression in series [1] came out at 0.752.

As to chain 1 F29S D31W, in the series with fluorescein, the Kd was ≥ 10 µM. The yeast surface expression in series [1] is 0.756.

With chain 1 F29A D31P, in the series with fluorescein, the Kd is ≥ 10 µM. The yeast surface expression in series [1] came out at 0.922.

chain 1 F29P Y32I M34L: the Kd with fluorescein was ≥ 10 µM. Besides, in series [1], the yeast surface expression came to 0.858.

In the case of chain 1 F29D W33C M34D, the Kd with fluorescein was ≥ 10 µM. In series [1], the yeast surface expression was 0.403.

In the case of chain 1 F29I M34T, in the series with fluorescein, the Kd was ≥ 10 µM. In series [1], the yeast surface expression is 0.54.

For the variant chain 1 F29K D31K W33G, the Kd in the series with fluorescein is ≥ 10 µM. For the same variant, in series [1], the yeast surface expression came to 0.92.

In the case of chain 1 F29D M34I, the Kd with fluorescein is ≥ 10 µM. The yeast surface expression in series [1] amounted to 0.946.

chain 1 D106W Y107N: the Kd in the series with fluorescein was ≥ 10 µM. The yeast surface expression in series [1] turned out to be 0.222.

Turning to chain 1 F29C N35K, the Kd in the series with fluorescein is ≥ 10 µM. In series [1], the yeast surface expression amounted to 1.18.

For chain 1 F29C N35I, the Kd with fluorescein was ≥ 10 µM. Further, the yeast surface expression in series [1] came out at 1.12.

Take chain 1 F29N V37G: in the series with fluorescein, the Kd is ≥ 10 µM. For the same variant, the yeast surface expression in series [1] was determined as 0.135.

Take chain 1 F29N V37T: the Kd with fluorescein is ≥ 10 µM. In addition, the yeast surface expression in series [1] turned out to be 0.668.

Consider chain 1 F29N V37D, for which the Kd with fluorescein is ≥ 10 µM. For the same variant, the yeast surface expression in series [1] amounted to 0.229.

Regarding chain 1 F29D, the Kd with fluorescein is ≥ 10 µM. The yeast surface expression in series [1] amounted to 1.07.

Turning to chain 1 F29M, the dissociation constant (Kd) in the series with fluorescein was 0.00251 µM. In addition, the yeast surface expression in series [1] was found to be 1.21.

Turning to chain 1 F29V, in the series with fluorescein, the Kd is 0.00967 µM. Besides, in series [1], the yeast surface expression came to 0.929.

As for chain 1 F29C, the Kd in the series with fluorescein amounted to 0.195 µM. In addition, the yeast surface expression in series [1] stood at 0.885.

Regarding chain 1 F29L, the Kd with fluorescein amounted to 0.0402 µM. Also, the yeast surface expression in series [1] amounted to 0.984.

Consider chain 1 F29N, for which the Kd in the series with fluorescein came to 5.24 µM. In addition, the yeast surface expression in series [1] amounted to 1.04.

chain 1 F29G: the Kd with fluorescein was ≥ 10 µM. Also, in series [1], the yeast surface expression was 0.925.

For the variant chain 1 F29E, in the series with fluorescein, the Kd is ≥ 10 µM. Besides, the yeast surface expression in series [1] was 0.778.

As to chain 1 F29P, in the series with fluorescein, the Kd turned out to be 0.0318 µM. Moreover, the yeast surface expression in series [1] was 1.05.

Turning to chain 1 F29R, the Kd with fluorescein was ≥ 10 µM. For the same variant, the yeast surface expression in series [1] came to 0.758.

chain 1 F29K: the Kd with fluorescein is ≥ 10 µM. Further, the yeast surface expression in series [1] stood at 0.849.

Take chain 1 F29Q: the Kd with fluorescein amounted to 0.0119 µM. For the same variant, the yeast surface expression in series [1] was 0.989.

Turning to chain 1 F29H, the Kd with fluorescein was 3.74 µM. Besides, the yeast surface expression in series [1] was 0.884.

Consider chain 1 F29I, for which, in the series with fluorescein, the Kd is 0.00325 µM. Moreover, in series [1], the yeast surface expression came to 1.01.

Regarding chain 1 F29A, the Kd with fluorescein was 0.0221 µM. For the same variant, in series [1], the yeast surface expression stood at 0.974.
